# Measured values from patent publication US20080207488A1, “Method for Detecting Peptides Comprising a Cross-B Structure” (priority 2005, published 2008).
# Key:
# tPA = target: T1, tPA (Homo sapiens, UniProt P00750); experiment: Plasminogen-activation assay (tPA-mediated Plg to Pls, S-2251); type: biochemical
# T1 construct: purchased Boehringer-Ingelheim (Actilyse, Alteplase)
# Method: Plasmin (Pls) activity was assayed as described^7. Peptides and proteins that were tested for their stimulatory ability were regularly used at 100 μg ml^−1. […] Chromogenic substrate S-2251 (Chromogenix, Instrumentation Laboratory SpA, Milano, Italy) was used to measure Pls activity. Conversion of zymogen factor XII (#233490, Calbiochem, EMD Biosciences, Inc., San Diego, Calif.) to proteolytically active factor XII (factor XIIa) was assayed by measurement of the conversion of chromogenic substrate Chromozym-PK (Roche Diagnostics, Almere, The Netherlands) by kallikrein. Chromozym-PK was used at a concentration of 0.3 mM. Factor XII, human plasma prekallikrein (#529583, Calbiochem) and human plasma cofactor high-molecular weight kininogen (#422686, Calbiochem) were used at concentrations of 1 μg ml^−1. […] Assays were performed using microtiter plates (Costar, Cambridge, Mass., USA). Peptides and proteins were tested for their ability to activate factor XII. 150 μg ml^−1 kaolin, an established activator of factor XII was used as positive control and solvent (H2O) as negative control. The conversion of Chromozym-PK was recorded kinetically at 37° C. for at least 60 minutes. Assays were done in duplicate. […] Alternatively, chromogenic substrate S-2222 (Chromogenix) was used to follow the activity of factor XII itself. With S-2222, activation of factor XII in plasma was measured, using 60% v/v plasma, diluted with substrate and H2O with or without potential cofactor. Furthermore, auto-activation of factor XII was measured by incubating 53 μg ml^−1 purified factor XII in 50 mM Tris-HCl buffer pH 7.5 with 1 mM EDTA and 0.001% v/v Triton-X100, with S-2222 and H2O with or without potential cofactor.
# (§1) Formulated protein therapeutics were obtained from the local hospital pharmacy and were used as supplied by the manufacturers. […] Lyophilized therapeutics were dissolved according to the manufacturers recommendations. […] Other protein therapeutics were only kept at 4° C., and assayed for the presence of cross-β structure conformation at shown time points. Enhancement in fluorescence of ThT and Congo red was measured with all formulated protein therapeutics. For this purpose, proteins were diluted to the indicated concentrations. […] Zinc-insulin was diluted tenfold in the activation assay, GH was diluted to a final concentration of 500 μg ml^−1. Activation of factor XII and prekallikrein by the therapeutics was tested in the chromogenic factor XII assay (see above). […] After coating, plates were blocked with Blocking Reagent (Roche Diagnostics, Almere, The Netherlands).
# Purification of β2-glycoprotein I (β2GPI) was performed according to established methods^11,12. Recombinant human β2GPI was made using insect cells and purified as described^11. Plasma derived β2GPI as used in a factor XII ELISA, the chromogenic Plg-activation assay and in the anti-phospholipid syndrome antibody ELISA (see below), was purified from fresh human plasma as described^12.
# (§2) To prepare structurally altered ovalbumin (OVA) with amyloid cross-β structure conformation, purified OVA (Sigma, A-7641, lot 071k7094) was heated to 85° C. One mg ml^−1 OVA in 67 mM NaPi buffer pH 7.0, 100 mM NaCl, was heated for two cycles in PCR cups in a PTC-200 thermal cycler (MJ Research, Inc., Waltham, Mass., USA). In each cycle, OVA was heated from 30 to 85° C. at a rate of 5° C./min. Native OVA (nOVA) and heat-denatured OVA (dOVA) were tested in the ThT fluorescence assay and in the Plg-activation assay. In the fluorescence assay and in the Plg-activation assay, 25 and 100 μg ml^−1 nOVA and dOVA were tested, respectively. TEM images of nOVA and dOVA were taken to check for the presence of large aggregates. […] MSA (#126674, Calbiochem) was dissolved in 8 M urea, 100 mM Tris-HCl pH 8.2, at 10 mg ml^−1 final concentration.
# [1] = Thioflavin T fluorescence; type: physicochemical
# Method: Fluorescence of ThT-protein/peptide adducts was measured as follows. […] Fluorescence was measured at 485 nm upon excitation at 435 nm. Background signals from buffer, buffer with ThT and protein/peptide solution without ThT were subtracted from corresponding measurements with protein solution incubated with ThT. […] Fluorescence was measured in triplicate on a Hitachi F-4500 fluorescence spectrophotometer (Ltd., Tokyo, Japan).
# as §1
# as §2, with “concentration. Dithiothreitol (DTT) was added to a final concentration of 10 mM. Air was replaced by N2 and the solution was incubated for 2 h at room temperature. Then, the solution was transferred to ice and iodoacetamide was added from a 1 M stock to a final concentration of 20 mM. […] Alkyl-MSA was dialyzed against H2O before use. […] In the ThT-fluorescence assay 25 μg ml^−1 nMSA and alkyl-MSA were tested, and in the Plg-activation assay 100 μg ml^−1 was tested. The presence of aggregates or fibrils was analyzed using TEM. […]” for “concentration.”
# Protein therapeutics were obtained from the local hospital pharmacy and analyzed within the expiry limits as stated by the manufacturers.
# [2] = target: T2, human fibronectin finger 4,5 (Fn F4,5) fragment (Homo sapiens, UniProt P02751); experiment: ELISA, binding of fibronectin F4,5 to coated (mis)folded proteins; settings: coated protein; for affinity of fibronectin F4,5 (detection anti-FLAG HRP): FIG. 7D-H
# T2 construct: human fibronectin finger 4,5 (Fn F4,5) fragment; made in house; host or cells: HEK293E cells, transient transfection, protein purified from the medium
# Method: The plates were blocked using Blocking reagent (Roche 1112589). A dilution series of the protein of interest was applied to the coated proteins and wells were subsequently washed using TBS-T (50 mM Tris pH 7.3, 150 mM NaCl and 0.1% Tween20). Bound protein is detected by the FLAG-tag using 1:3000 anti-FLAG-HRP (Sigma A-8592) in PBS-T, or by 1:1000 Ni-NTA-HRP (Qiagen 34530) in PBS-T. The HRP reaction Is performed using the TMB substrate (Biosource 4501103 or Tebu Bio 101TMB100-500), stopped using 10% H2SO4 and absorbance was measured at 450 nm.
# T1 sequence (P00750 36-562): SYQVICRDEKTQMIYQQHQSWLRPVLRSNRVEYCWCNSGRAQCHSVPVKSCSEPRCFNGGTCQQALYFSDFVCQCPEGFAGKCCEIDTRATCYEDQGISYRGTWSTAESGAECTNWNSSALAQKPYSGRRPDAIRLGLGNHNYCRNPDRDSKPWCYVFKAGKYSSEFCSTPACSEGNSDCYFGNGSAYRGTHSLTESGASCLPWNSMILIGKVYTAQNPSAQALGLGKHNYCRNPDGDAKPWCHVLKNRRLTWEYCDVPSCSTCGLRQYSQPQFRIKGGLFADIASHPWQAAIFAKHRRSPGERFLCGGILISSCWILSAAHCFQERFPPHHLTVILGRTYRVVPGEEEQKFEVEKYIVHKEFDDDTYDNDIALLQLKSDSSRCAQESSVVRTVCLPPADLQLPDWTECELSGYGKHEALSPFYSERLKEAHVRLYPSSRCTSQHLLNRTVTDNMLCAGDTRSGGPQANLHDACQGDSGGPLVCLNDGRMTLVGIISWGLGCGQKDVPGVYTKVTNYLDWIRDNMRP
# T2 sequence (P02751 182-276 limits assumed): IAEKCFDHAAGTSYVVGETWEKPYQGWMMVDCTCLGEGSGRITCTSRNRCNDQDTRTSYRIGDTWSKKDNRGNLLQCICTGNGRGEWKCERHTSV
Pls activity (tPA activation) (tPA; after storage at 65° C.),"activation of tPA and Plg by component alone (tPA; FIG. 2G, without contacting)","affinity of fibronectin F4,5 (detection anti-FLAG HRP) [2]",binding of fibronectin F4-5 (detection Ni-NTA-HRP) ([2]; FIG. 7A),Substance,"tPA activation by protein therapeutics (tPA; stored at 4° C., GH 500 μg ml^−1, zinc-insulin diluted tenfold)",ThT fluorescence enhancement ([1]; after storage at 65° C.),"Fluorescence (a.u. +/− SD) ThT ([1]; marketed biopharmaceutical within expiry limits, five μL tested)",enhancement of ThT fluorescence ([1]; therapeutics stored at 4° C.),ThT fluorescence after incubation with kaolin ([1]; compared to buffer)
induced Pls activity,,,,"Abciximab: abciximab, an inhibitor of blood platelet aggregation (ReoPro, Centocor)",do not have ThT fluorescence enhancing or tPA activating properties,enhanced ThT fluorescence,8 +/− 8 a.u.,do not have ThT fluorescence enhancing or tPA activating properties,
,do not activate tPA and Plg,high affinity,,lysozyme: chicken egg-white lysozyme,,,,,only in a small increase in ThT fluorescence
,,High affinities,high affinity binding,albumin-AGE: advanced glycation end-product modified bovine serum albumin,,,,,
